# Tested on: MS2 coat protein
# Assay: apparent KD of MS2 coat protein; designed switch direction (-1 OFF switch, 1 ON switch): -1; higher = weaker reporter binding
# Summary of the method: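 The reported apparent KD is a per-design median over clusters, from curve fits of normalised cluster fluorescence. Protein titrations used SNAP-549-labelled MS2 coat protein, doubled from 0.7 or 1.5 nM to 3 µM, in Tris-HCl pH 7.5 buffer with KCl, MgCl2, BSA, DTT, tRNA and Tween-20, with no input, 200 uM small-molecule ligand, or an oligonucleotide input. The RNA switches were transcribed on Illumina chips by stalled E. coli RNA polymerase.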
# [1] = input ligand: microRNA oligo, concentration not stated
# [2] = Eterna round: R95, input ligand: FMN 200 uM
# [3] = Eterna round: R95, input ligand: microRNA oligo, concentration not stated
# [4] = Eterna round: R95, input ligand: none
Sequence,apparent KD of MS2 coat protein (input ligand: FMN 200 uM) [nM],apparent KD of MS2 coat protein (input ligand: none) [nM],apparent KD of MS2 coat protein [1] [nM],apparent KD of MS2 coat protein [2] [nM],apparent KD of MS2 coat protein [3] [nM],apparent KD of MS2 coat protein [4] [nM]
"UAAUUAAUUAAUUAAUAAUACAUGAGGAUCACCCAUGUAGAUCCUACAUACAAGCUAAGUAGCUCGUCUUAUAAUUA [Stov1/2-A1] (Eterna round: R97, puzzle: Sensor, turn-off variant 1)",364,353,–,–,–,–
"GUCAGACGAGGAUAUAGAUUUAGAUACAUGAGGAUCACCCAUGUAUAUAUGUAUUUAGAUUUAGAAGGCGUCUGAC [E5/15-A3] (Eterna round: R97, puzzle: Exclusion 5)",187,240,–,–,–,–
"UUUUUAUAUGAAGGAUAUACUUAACAUGAGGAUCACCCAUGUGGUGUUGUGAGUGAGUGAGUUUAGUAGAAGGUCAAGUAUUGU [JMF's solution 39] (Eterna round: R96, puzzle: Exclusion NG 2)",891,441,347,–,–,–
UUUUAUUGCAAGGAUAUGCAAUUUAUUAUUUAUGCAGAAGGUGCUACAUGAGGAUCACCCAUGUUUCUGGGUUU [JR_E6_Sub044] (puzzle: Exclusion 6),–,–,–,253,91.8,86.7
"UUUAACAAGCCAGAUCCUAACAUGAGGAUCACCCAUGUGCUCGUCUGAUUUUGUACUAUCAUGUGAGUGAUAGUAUU [Level Boss var2-04] (puzzle: Sensor v3, turn-off variant 1)",–,–,–,174,683,308
"UGCCUACAUGAGGAUCACCCAUGUGAGGAUAUCCUGCGAGGAUCAAAAGAUCCUCGUGGGAGAAGGCACAUGAA [Omei Ex1 B1] (Eterna round: R97, puzzle: Exclusion 1)",146,38.5,–,–,–,–
"AUCAGCUCGUCAGGAUAUACAUCACUGCUUCGGCAGUGUAUUAAGAUCACAUGAGGAUCACCCAUGUAGAAGGGACGAGCUGAU [ENG2/2-B3] (Eterna round: R96, puzzle: Exclusion NG 2)",342,25.3,18.2,–,–,–
GGUUGACAUGAGGAUCACCCAUGUGAGGAUAUGCGAGAGAAAAAAGUGAGGAAGAAUUGCAGAAGGCGCUGUCG [salish99-ex1_r3_015] (puzzle: Exclusion 1),–,–,–,69.3,37.1,76.9
"AAAAGUGAAGAGGAUAUCUGCGCCGAACGGUAAAGAGAAGGCUUCACAUGAGGAUCACCCAUGUGGGCCACAGA [EX6 C.5] (Eterna round: R97, puzzle: Exclusion 6)",79.3,19.8,–,–,–,–
CCUCGACAUGAGGAUCACCCAUGUCAGGAUAUUGUGUCUCGGGUUUUUUACCGAUAGGCAAGAAGGGAUGUGUG [LRO-Excl1-13] (puzzle: Exclusion 1),–,–,–,–,21.5,–
"CGCUAGUCAGGAUAUACGAACAUGUCAAAAGACGUGAAGGGACAUGAGGAUCACCCAUGUAGAAGGGACUAGCG [Mat - Exclusion 2 - JL mod - D4] (Eterna round: R96, puzzle: Exclusion 2)",256,32.2,21.3,–,–,–
"ACAUGUGUUGUAGGAUAUAGGAUACAUGAGGAUCACCCAUGUGGAUUCAUGUCUAUGGAAACGUCCUAGAAGGACGACAACAUG [Ex NG2 #21] (Eterna round: R96, puzzle: Exclusion NG 2)",120,90.5,56,–,–,–
"AAUCCACAUGAGGAUCACCCAUGUGAGGAUAUGUCCAUAUUCGGCAAAUCGGAUAUGGACAGAAGGCACAUAAA [JR_Exclusion1_Sub013] (Eterna round: R96, puzzle: Exclusion 1)",99.5,26.5,21,–,–,–
"AGAAGGAAAGUGAGGAUAUGCUCUACCUCGGUAGAGCAGAAGGCACAUGAGGAUCACCCAUGUGACUCCUCAUU [Omei Ex4B B26] (Eterna round: R97, puzzle: Brourd's mod of Exclusion 4)",29.2,19.5,–,–,–,–
CUUUUGUGAGGAUAUCAGUUGUAAAAAAAUAAAAUUACUACUGAGAAGGCACAUGAGGAUCACCCAUGUUCCUC [salish99_ex4_r3_033] (puzzle: Exclusion 4),–,–,–,–,33.2,–
"CACCGUUAAGGAGGAUAUCGUACAUGAGGAUCACCCAUGUAAUAAAUGAGAAUUUCGGAUGUAUGCGAGAAGGCCUAAAUCGGC [Ostracism 44 - Jieux - Exclusion NG 2] (Eterna round: R96, puzzle: Exclusion NG 2)",–,–,34.7,–,–,–
"CCUUCAGUAGUUAGGAUAUUUGGCGUCGAGGCGCAAGAGAAGGGACAUGAGGAUCACCCAUGUGAGUAUGGUAG [Eternabot (L1) Solution 35] (Eterna round: R97, puzzle: Brourd's mod of Exclusion 4)",61.9,63.1,–,–,–,–
"GCCUGUAGUGUGAGGAUAUGCUGCUCCAUAGAGCAGCAGAAGGCACAUGAGGAUCACCCAUGUGAUAACAGGCA (Eterna round: R97, puzzle: Brourd's mod of Exclusion 4)",443,151,–,–,–,–
"CAAAGAUAAGGAUAUUGAAGGUUCGACAUGAGGAUCACCCAUGUUAUGUUGGAAAAGGGACAAGAAGGUAUGAAAA [salish99_ex5_r4_214] (Eterna round: R97, puzzle: Exclusion 5)",31.5,39.3,–,–,–,–
"AGUUGGCGAGGAUAUACAUGAGGAUCACCCAUGUGAAAUUAAAGUGAGGAAAUGAAAAGUAGAAGGCGCUGACA [Mod of Mat - Jieux - Exclusion 3] (Eterna round: R97, puzzle: Exclusion 3)",686,67.7,–,–,–,–
"GCCGAAAGCGUAGGAUAUCGAAUAAAGCGGAAACGCAAGACAUGAGGAUCACCCAUGUGUCCGGACGAGAAGGGCGAAAGCGGC [EXNG2 V2 a] (Eterna round: R96, puzzle: Exclusion NG 2)",33.4,34.3,27.1,–,–,–
"CUUCAGUCAGGAUAUCAUGAGCUCUGCCGACACGGGCUCGCUGAGAAGGGACAUGAGGAUCACCCAUGUAGACC [EX4 C.20] (Eterna round: R97, puzzle: Exclusion 4)",132,34.1,–,–,–,–
"AACGGGACAGGAUAUGUCACGGAGAACAUGAGGAUCACCCAUGUGGCUUCGUGGUCUGUUGCAGAAGGGUCGAAAU [Vebedi] (Eterna round: R97, puzzle: Exclusion 5)",19.6,11.9,–,–,–,–
"AUAAUGUAAGGAUAUCAGUCGACUAGCUUCGGCUAGUCGACUGAGAAGGUACAUGAGGAUCACCCAUGUAGAUC [E4/19-A1] (Eterna round: R97, puzzle: Exclusion 4)",363,66,–,–,–,–
GUGUACAGAGGAUAUACUCAUGGAGUUACGAAAGUAACUUCACAUGAGGAUCACCCAUGUAGAAGGCUGUACAC [Dot plot directed v9] (puzzle: Exclusion 2),–,–,–,–,341,–
"GUCACAUGGACAUAGGAUCACAUGAGGAUCACCCAUGUGACUAACAAGCUUUUUGUUCGUCUUAUGUCCAUGUGAAU [Stov1/15-B1] (Eterna round: R97, puzzle: Sensor, turn-off variant 1)",13.7,12,–,–,–,–

# — the supplement of paper PMC9170038
